Assay results published in patent US20140357577A1, “HIV Membrane Fusion Inhibitors” (priority 2011, published 2014).
Starred links: 1 amine or outer side, 2 acyl side, 3 side chain; linkers in the order of their positions; H or OH if unused. Positions of bridges follow the written chain, without caps; N, C: chain ends. Non-standard residues stand in square brackets, D forms with d. Primed or numbered codes have the meaning given here. *: point of attachment. cholesteryl‑oxycarbonylmethyl = CC(C)CCC[C@@H](C)[C@H]1CC[C@H]2[C@@H]3CC=C4C[C@@H](OC(=O)C*)CC[C@]4(C)[C@H]3CC[C@]12C; B21″ = 2,7-dimethylnaphtyl linker joining two Cys, c1cc2ccc(C[*:2])cc2cc1C[*:1]; tBuAla = CC(C)(C)C[C@H](N)C(=O)O; Suc = O=C(CCC(=O)[*:2])[*:1]; hCys = N[C@@H](CCS)C(=O)O; Nva = CCC[C@H](N)C(=O)O; Abu = CC[C@H](N)C(=O)O; Hexanoyl = CCCCCC(=O)*; Pentanoyl = CCCCC(=O)*; B1 = not defined here; B3 = not defined here; Butyryl = CCCC(=O)*

B1: peptide 32 (peptide)
peptide: Suc-ENYLRLIEELIRKAQEQQEKNEAALRGSGC(cholesteryl‑oxycarbonylmethyl)-NH2
SMILES: CC[C@H](C)[C@H](NC(=O)[C@H](CC(C)C)NC(=O)[C@H](CCC(=O)O)NC(=O)[C@H](CCC(=O)O)NC(=O)[C@@H](NC(=O)[C@H](CC(C)C)NC(=O)[C@H](CCCNC(=N)N)NC(=O)[C@H](CC(C)C)NC(=O)[C@H](Cc1ccc(O)cc1)NC(=O)[C@H](CC(N)=O)NC(=O)[C@H](CCC(=O)O)NC(=O)CCC(=O)O)[C@@H](C)CC)C(=O)N[C@@H](CCCNC(=N)N)C(=O)N[C@@H](CCCCN)C(=O)N[C@@H](C)C(=O)N[C@@H](CCC(N)=O)C(=O)N[C@@H](CCC(=O)O)C(=O)N[C@@H](CCC(N)=O)C(=O)N[C@@H](CCC(N)=O)C(=O)N[C@@H](CCC(=O)O)C(=O)N[C@@H](CCCCN)C(=O)N[C@@H](CC(N)=O)C(=O)N[C@@H](CCC(=O)O)C(=O)N[C@@H](C)C(=O)N[C@@H](C)C(=O)N[C@@H](CC(C)C)C(=O)N[C@@H](CCCNC(=N)N)C(=O)NCC(=O)N[C@@H](CO)C(=O)NCC(=O)N[C@@H](CSCC(=O)O[C@H]1CC[C@@]2(C)C(=CC[C@H]3[C@@H]4CC[C@H]([C@H](C)CCCC(C)C)[C@@]4(C)CC[C@@H]32)C1)C(N)=O
B2: peptide 35 (peptide)
peptide: Suc-ANYLALIEALIRAAQEQQEKNEAALRGSGC(cholesteryl‑oxycarbonylmethyl)-NH2
SMILES: CC[C@H](C)[C@H](NC(=O)[C@H](CC(C)C)NC(=O)[C@H](C)NC(=O)[C@H](CCC(=O)O)NC(=O)[C@@H](NC(=O)[C@H](CC(C)C)NC(=O)[C@H](C)NC(=O)[C@H](CC(C)C)NC(=O)[C@H](Cc1ccc(O)cc1)NC(=O)[C@H](CC(N)=O)NC(=O)[C@H](C)NC(=O)CCC(=O)O)[C@@H](C)CC)C(=O)N[C@@H](CCCNC(=N)N)C(=O)N[C@@H](C)C(=O)N[C@@H](C)C(=O)N[C@@H](CCC(N)=O)C(=O)N[C@@H](CCC(=O)O)C(=O)N[C@@H](CCC(N)=O)C(=O)N[C@@H](CCC(N)=O)C(=O)N[C@@H](CCC(=O)O)C(=O)N[C@@H](CCCCN)C(=O)N[C@@H](CC(N)=O)C(=O)N[C@@H](CCC(=O)O)C(=O)N[C@@H](C)C(=O)N[C@@H](C)C(=O)N[C@@H](CC(C)C)C(=O)N[C@@H](CCCNC(=N)N)C(=O)NCC(=O)N[C@@H](CO)C(=O)NCC(=O)N[C@@H](CSCC(=O)O[C@H]1CC[C@@]2(C)C(=CC[C@H]3[C@@H]4CC[C@H]([C@H](C)CCCC(C)C)[C@@]4(C)CC[C@@H]32)C1)C(N)=O
B3: peptide 39 (peptide)
peptide: Pentanoyl-ECYLACIEALIRAAQEQQEKNEAALR-NH2
modifications: linker 2-6 via B21″
SMILES: CCCCC(=O)N[C@@H](CCC(=O)O)C(=O)N[C@H]1CSCc2ccc3ccc(cc3c2)CSC[C@@H](C(=O)N[C@H](C(=O)N[C@@H](CCC(=O)O)C(=O)N[C@@H](C)C(=O)N[C@@H](CC(C)C)C(=O)N[C@H](C(=O)N[C@@H](CCCNC(=N)N)C(=O)N[C@@H](C)C(=O)N[C@@H](C)C(=O)N[C@@H](CCC(N)=O)C(=O)N[C@@H](CCC(=O)O)C(=O)N[C@@H](CCC(N)=O)C(=O)N[C@@H](CCC(N)=O)C(=O)N[C@@H](CCC(=O)O)C(=O)N[C@@H](CCCCN)C(=O)N[C@@H](CC(N)=O)C(=O)N[C@@H](CCC(=O)O)C(=O)N[C@@H](C)C(=O)N[C@@H](C)C(=O)N[C@@H](CC(C)C)C(=O)N[C@@H](CCCNC(=N)N)C(N)=O)[C@@H](C)CC)[C@@H](C)CC)NC(=O)[C@H](C)NC(=O)[C@H](CC(C)C)NC(=O)[C@H](Cc2ccc(O)cc2)NC1=O

Test system: HIV wild type virus strain IIIB
Experiment: Standard Anti-Viral-Experiment (AVE), HIV-1 replication assay in MT4-LTR-EGFP cells, wild type IIIB
Assay type: cell-based
Conditions: 3 days, EGFP signal
From the text: • Standard Anti-Viral-Experiment “AVE” (wild type HIV strain IIIB+HIV strain HXB2D side directed mutants V38A and Q40H)
The HIV-1 replication assay measures virus replication (HIV wild type virus strain 111B or HXB2D, or a HIV mutant virus strain HXB2D with mutation V38A or Q40H in the gp41 gene) as an induction of enhanced green fluorescent protein (EGFP) expression. The indicator MT4-LTR-EGFP cells contain an EGFP gene under the control of the HIV-1 LTR promoter sequence. Successful HIV-1 infection results in viral Tat protein expression and subsequent induction of EGFP expression. Compounds/peptides inhibiting HIV-1 infection are expected to reduce EGFP expression as compared to the untreated HIV-infected control.
Serial 4-fold dilutions of test compounds/peptides were mixed with HIV-1 (IIIB, HXB2D, or a HXB2D mutant virus (V38A or Q40H)) and MT4-LTR-EGFP cells and incubated at 37° C. After 3 days, the wells were examined for EGFP expression using an argon laser-scanning microscope. The effective compound/peptide concentration inhibiting 50% of the virus-induced EGFP signal (EC50) was determined by linear interpolation of the EGFP signal vs. logarithm of the compound concentration; (T20, C34 and Sifuvirtide were added as reference compounds). For the V38A and Q40H mutant viruses, results were reported as a fold change in EC50, as compared with a drug-susceptible wild type strain HXB2D, which forms the backbone of the mutant virus. • Standard AVE (50% Human Serum)

“NNYTSLIHSLIEESQNQQEKNEQELL [C34-PBD*, reference compound]” was tested, and the EC50 was > 49.2 µM.

Molecular target: gp41 of HIV-1 strain HXB2D with mutation V38A (HIV-1 strain HXB2D, UniProt P04578)
Experiment: cell-based or functional assay
Conditions: not given

Going from Suc-CYLACIEELIRKAQEQQEKNEAAL[tBuAla]-NH2 (linker 1-5 via B1; reading uncertain) [peptide 24] to Suc-CYLACIEALIRAAQEQQEKNEAALR-NH2 (linker 1-5 via B1; reading uncertain) [peptide 26], the “fold change in EC50, HIV-HXB2D V38A mutant” value (shortened to “fold change in EC50”) falls from 26 fold to 19 fold.

Compared with Suc-CYLACIEELIRKAQEQQEKNEAAL[tBuAla]-NH2 (linker 1-5 via B3; reading uncertain) [peptide 27], Suc-[hCys]YLA[hCys]IEALIRAAREQQEKNEALLR-NH2 (linker 1-5 via B1; reading uncertain) [peptide 28] is lower in “fold change in EC50” value: 28 fold for the first, 4 fold for the second.

Compared with Ac-SWETWEREIENYTRQIYRILEESQEQQDRNERDLLE-NH2 [Sifuvirtide], Suc-ECYLRCIEELIRKAQEQQEKNEAALR-NH2 (linker 2-6 via B1; reading uncertain) [peptide 29] is higher in “fold change in EC50” value: 1 fold for the first, 7 fold for the second.

Going from Suc-ACYLACIDELIKKAQEQQEKNEAALR-NH2 (linker 2-6 via B1; reading uncertain) [peptide 30] to Suc-ACYLACIEELIRKAQEQQEKNEAALR-NH2 (linker 2-6 via B1; not fully specified; reading uncertain) [peptide 31], the “fold change in EC50” value rises from 8 fold to 14 fold.

Going from B1 to Suc-ECYLACIEALIRAAQEQQEKNEAALR-NH2 (linker 2-6 via B1; reading uncertain) [peptide 33], the “fold change in EC50” value rises from 1 fold to 11 fold.

Compared with Suc-ACYLACIEELIRKAQEQQEKNEAAL[dR]-NH2 (linker 2-6 via B1; reading uncertain) [peptide 34], B2 is lower in “fold change in EC50” value: 19 fold for the first, 4 fold for the second.

Going from Suc-ACYLACIDELIAKAQEQQEKNEAALR-NH2 (linker 2-6 via B1; reading uncertain) [peptide 36] to Ac-ECYLACIEELIRKAQEQQEKNEAALR-NH2 (linker 2-6 via B1; reading uncertain) [peptide 37], the “fold change in EC50” value falls from 23 fold to 7 fold.

First: Pentanoyl-ECYLACIEALIRAAQEQQEKNEAALR-NH2 (linker 2-6 via B1; reading uncertain) [peptide 38]
Second: Ac-ENYTRQIYRILEESQEQQDRNERDLL-NH2 [Sifuvirtide-PBD]
The “fold change in EC50” value of the first is lower: 3 fold for the first, > 3 fold for the second.

First: B3
Second: Butyryl-ECYLACIEELIRKAQEQQEKNEAALR-NH2 (linker 2-6 via B1; reading uncertain) [peptide 40]
The “fold change in EC50” value of the first is lower: 2 fold for the first, 3 fold for the second.

Pentanoyl-ECYLACIEELIRKAQEQQEKNEAALR-NH2 (linker 2-6 via B1; reading uncertain) [peptide 41] and Hexanoyl-ECYLACIEELIRKAQEQQEKNEAALR-NH2 (linker 2-6 via B1; reading uncertain) [peptide 42] are the same in “fold change in EC50” value: 2 fold for the first, 2 fold for the second.

First: Suc-ACYLACIEALIRAAQEQQEKNEAALR-NH2 (linker 2-6 via B1; reading uncertain) [peptide 43]
Second: Suc-ACY[Nva]ACIEALIRAAQEQQEKNEAALR-NH2 (linker 2-6 via B1; reading uncertain) [peptide 44]
The “fold change in EC50” value of the first is higher: 19 fold for the first, 15 fold for the second.

First: Ac-ECYLACIEALIRAAQEQQEKNEAALR-NH2 (linker 2-6 via B1; reading uncertain) [peptide 45]
Second: Suc-ACYLACIEALIRA[Nva]QEQQEKNEAALR-NH2 (linker 2-6 via B1; reading uncertain) [peptide 46]
The “fold change in EC50” value of the first is higher: 14 fold for the first, 6 fold for the second.

First: Suc-ACYLACIEALIRA[Abu]QEQQEKNEAALR-NH2 (linker 2-6 via B1; reading uncertain) [peptide 47]
Second: Ac-ACYLACIEALIRKAQEQQEKNEAALR-NH2 (linker 2-6 via B1; reading uncertain) [peptide 48]
The “fold change in EC50” value of the first is higher: 17 fold for the first, 10 fold for the second.
